Paper PMC6718452

Target: FITC-labeled amyloid-β (Aβ), aggregated into amyloid-derived diffusible ligands (ADDLs)
Assay: SEC; FITC-labeled Aβ aggregated by the Freir protocol (ADDLs); solvent PBS

stoichiometry N: 2
Substance: FITC-labeled amyloid-β (Aβ), aggregated into amyloid-derived diffusible ligands (ADDLs) (peptide)
